This is an account of results in US20230174641A1 (H LUNDBECK A S, published 2023).

Changes are numbered by the printed parent chain. Ends that are not written are not given here.

Experiment [1] deals with T1, human ACTH 1-13 (human, ends and bridges not checked).
T1 construct: also called human alpha-MSH (ACTH 1-13); alpha-MSH
T1 peptide: SYSMEHFRWGKPV
In words: SPR ProteOn, antibody immobilised; SPR, antibody on the chip, alpha-MSH alone (Table 6). The procedure: (§1) Antibody was immobilized to the surface of general amine coupling (GLC or GLM) Chips (Bio-Rad). […] At the chosen concentrations of antigen (ranging from 454 ng/ml to 5.6 ng/ml) association times of 200 seconds and dissociation times of 30-200 minutes were used with the ProteOnTM Manager Software (v3.1.0.6, Bio-Rad) to group and fit data using a 1:1 Langmuir binding model. Surfaces were regenerated between analyte queries using 10 mM glycine at pH 2.0. Data repeated across a single density was averaged and a single KD and standard propagation of error calculated for each antibody.

The next experiment has as its target T2, human ACTH 18-39 (human).
T2 construct: also called CLIP; CLIP (ACTH 18-39)
T2 peptide: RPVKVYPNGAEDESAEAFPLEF
Description: SPR ProteOn, antibody immobilised. The procedure: as §1

Experiment [2] deals with T3, human ACTH 1-39 (human).
T3 construct: unlabelled synthetic peptide (Bachem or American Peptide) as used in SPR and cell assays; also called huACTH 1-39; huACTH(1-39)
T3 peptide: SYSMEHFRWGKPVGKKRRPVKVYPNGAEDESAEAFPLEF
In words: SPR ProteOn, antibody immobilised. The procedure:
as §1

Experiment [3] concerns the target T3, human ACTH 1-39. In words: cell-based or functional assay.
The target in experiment [4] is T4, N-term biotinylated human ACTH 1-39 (human, N-terminal biotin).
T4 construct: also called huACTH 1-39
T4 peptide: T3 peptide
In words: competition HTRF, biotinylated human ACTH 1-39 in the presence of ACTH 1-13 and ACTH 18-39 at 1X (55 nM each, [p-2038]). The procedure: (§2) Twenty microliters of Eu3+cryptate labeled anti-hu Fc donor and 20 μl of d2-labeled streptavidin acceptor were added to each well and incubated for 1 hour at room temperature. Fluorescence was measured at […] with a delay of 300 μsec.
In general terms: TR-FRET usually uses a lanthanide donor and a delayed reading to cut background.

Experiment [5] has as its target T3, human ACTH 1-39. In words: cell-based or functional assay.
Experiment [6] deals with T4, N-term biotinylated human ACTH 1-39. Description: ELISA, biotin-ACTH 1-39 on neutravidin plate. The procedure:
All incubations were done at room temperature. […] The plates were then blocked using a blocking solution (PBS, 0.5% fish skin gelatin, 0.05% Tween-20) for approximately one hour. The blocking solution was then removed and the plates were then incubated with a dilution series of the antibody being tested for approximately one hour. At the end of this incubation, the plate was washed three times with wash buffer and further incubated with a secondary antibody containing solution (Peroxidase conjugated AffmiPure™ F(ab′)₂ fragment goat anti-human IgG, Fc fragment specific (Jackson Immunoresearch) for approximately 45 minutes and washed three times. Next a substrate solution (TMB peroxidase substrate, BioFx®, SurModics, Eden Prairie, Minn.) was added and incubated for 3 to 5 minutes in the dark. The reaction was stopped by addition of 0.5 M HCl and the plate was read at 450 nm in a plate-reader.

Experiment [7] concerns the target T3, human ACTH 1-39. Description: cell-based or functional assay.
The target of experiment [8] is T4, N-term biotinylated human ACTH 1-39. In words: competition HTRF, biotinylated human ACTH 1-39 in the presence of ACTH 1-13 and ACTH 18-39 at 10X (550 nM each, [p-2038]). The procedure:
as §2

Experiment [9] deals with T3, human ACTH 1-39. Description: cell-based or functional assay.
A further experiment concerns the target T5, ACTH 1-24 (human).
T5 peptide: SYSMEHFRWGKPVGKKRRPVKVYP
Description: cell-based or functional assay.

Experiment [10] has as its target T1, human ACTH 1-13. In words: SPR ProteOn, antibody immobilised. The procedure:
as §1

B1: Ab5 (antibody, human IgG1, kappa, N297A, V domains shown)
VH: QSVEESGGRLVTPGTPLTLTCTVSGFSLSSYAMSWVRQAPGEGLEWIGIISDSGSTYYASWAKGRFTISKTSTTVDLKITSPTTEDTATYFCAREPEYGYDDYGDWVSDLWGQGTLVTVSS
VL: DIVMTQTPASVSEPVGGTVTIKCQASQSISSYLSWYQQKPGQPPKLLIYRASTLASGVPSRFKGSGSGTQFTLTISDLECADAATYYCQSYYYSSSITYRNAFGGGTEVVVKR
notes: rabbit/human chimeric antibody, made in HEK-293
As to B1, in the experiment with human ACTH 1-13 [1], the affinity, expressed as Kd, was 55 nM; the koff (as a rule, the first-order rate constant of dissociation) was 0.014 s⁻¹; the kon (commonly the rate constant with which the complex forms) was 260000 M⁻¹ s⁻¹. In the experiment with human ACTH 18-39, this molecule had a dissociation rate constant (koff) of more than 0.1 s⁻¹. Further, in the experiment with human ACTH 1-39 [2], the Kd (as a rule, a measure of binding affinity in units of concentration) stood at 0.064 nM; the koff was 6.4e-05 s⁻¹; the kon came to 1e+06 M⁻¹ s⁻¹. Moreover, the “Y1 Cells IC50” value in the experiment with human ACTH 1-39 [3] stood at 3.49 nM. For the same molecule, in experiment [4], the EC50 (read off the curve) (in general, the concentration that produces a half-maximal response) is approximately 2 nM. In addition, in the experiment with human ACTH 1-39 [5], the “MC3R IC50” value stood at 58.1 nM, the “MC4R IC50” value came to 43.4 nM and the “MC5R IC50” value was determined as 1000 nM. Besides, a half-maximal response in [6] (EC50) required 1.5 nM. Also, the “MC2R IC50” value with human ACTH 1-39 [7] came out at 0.11 nM. In addition, in experiment [8], the “EC50 (read off the curve)” value was approximately 3 nM. Moreover, the “MC1R IC50” value with human ACTH 1-39 [9] is 1.96 nM.

B2: Ab6 (antibody, human IgG1, kappa, N297A, V domains shown)
VH: B1 VH with S29T, S30D, I68F, K78R, D102E, Q113P
VL: DIVMTQTPASVEAAVGGAVTIKCQATQSIGNNLAWYQQKPGQPPKLLIYRASTLASGVPSRFKGSGSGTEFTLTISDLECADAATYYCQSYYYSSSITYHNAFGGGTEVVVKR
notes: as for B1
In the experiment with human ACTH 1-13 [1], B2 showed a Kd of 16 nM, a koff of 0.0052 s⁻¹ and a kon of 330000 M⁻¹ s⁻¹. Also, the koff with human ACTH 18-39 was more than 0.1 s⁻¹. In the experiment with human ACTH 1-39 [2], the Kd was 0.019 nM, the koff worked out at 1.9e-05 s⁻¹ and the association rate constant (kon) was determined as 1e+06 M⁻¹ s⁻¹. Also, the “Y1 Cells IC50” value with human ACTH 1-39 [3] came to 1.44 nM. Moreover, the “IC50 (nM), cAMP in MC2R cells” value with ACTH 1-24 stood at 0.1 nM. In the experiment with human ACTH 1-39 [5], the “MC3R IC50” value worked out at 62.8 nM, the “MC4R IC50” value was 55.2 nM and the “MC5R IC50” value worked out at 1000 nM. It took 2 nM to reach a half-maximal effect in experiment [6] (EC50). In the experiment with human ACTH 1-39 [7], the “MC2R IC50” value came out at 0.03 nM. In addition, the “MC1R IC50” value with human ACTH 1-39 [9] was found to be 1.04 nM.

B3: Ab2 (antibody, human IgG1, kappa, N297A, V domains shown)
VH: QSVEESGGRLVTPGTPLTLTCTVSGFSLSKYDMIWVRQAPGKGLESIGIIYDDGDTYYASWAKGRFTISQTSTTVDLKIISPTTEDTATYFCVKGVSNIWGQGTLVTVSS
VL: DVVMTQTPASVEAAVGGTVTIKCQASQSISNYLAWYQQKTGQPPKLLIYSASTLASGVPSRFKGSGSGTEFTLTISDLECADAATYYCQSYEGSSSSSYGVGFGGGTEVVVKR
notes: as for B1
The molecule B3 had a koff in the experiment with human ACTH 1-13 [10] of more than 0.1 s⁻¹. In the experiment with human ACTH 18-39, this molecule had a Kd of 31 nM, a koff of 0.026 s⁻¹ and a kon of 840000 M⁻¹ s⁻¹. Besides, in the experiment with ACTH 1-24, the “IC50 (nM), cAMP in MC2R cells” value came out at 1.3 nM. For the same molecule, in the experiment with human ACTH 1-39 [5], the “MC3R IC50” value was found to be 79 nM, the “MC4R IC50” value was determined as 54.5 nM and the “MC5R IC50” value worked out at 1100 nM. For the same molecule, in experiment [6], a half-maximal response (EC50) required 0.42 nM. Also, in the experiment with human ACTH 1-39 [7], the “MC2R IC50” value worked out at 0.25 nM. Also, the “MC1R IC50” value with human ACTH 1-39 [9] was 3.62 nM.

B4: Ab3 (antibody, human IgG1, kappa, N297A, V domains shown)
VH: QSLEESGGRLVTPGTPLTLTCTVSGSSLSNFDMIWVRQAPGKGLESIGIIYDFGSTYYASWAKGRFTISRTSSTTVDLKIISPTIEDTATYFCVKGVSNIWGQGTLVTVSS
VL: B3 VL with Q27E, S28D, N31S, Y32N, T40L, T74A, E92D, V101I
notes: as for B1
The molecule B4 came in with a koff with human ACTH 1-13 [10] of more than 0.1 s⁻¹. In addition, in the experiment with human ACTH 18-39, the Kd was determined as 25 nM, the koff came to 0.0085 s⁻¹ and the kon stood at 340000 M⁻¹ s⁻¹. Besides, the “Y1 Cells IC50” value in the experiment with human ACTH 1-39 [3] stood at 7.72 nM. Besides, in the experiment with ACTH 1-24, the “IC50 (nM), cAMP in MC2R cells” value was determined as 0.8 nM. In the experiment with human ACTH 1-39 [5], the “MC3R IC50” value is 58.7 nM, the “MC4R IC50” value amounted to 54.2 nM and the “MC5R IC50” value was 1100 nM. The EC50 (as a rule, the concentration needed to bring the measured effect to its halfway point) in experiment [6] is 0.24 nM. Also, the “MC2R IC50” value with human ACTH 1-39 [7] turned out to be 0.29 nM. Further, the “MC1R IC50” value with human ACTH 1-39 [9] turned out to be 4.12 nM.
